From patent US20190389970A1 come the findings set out here.

Assay [1] deals with Free BSA (Sigma A6003) (UniProt P02769). In words: ELISA, free BSA coated at 500 ng/well in sodium bicarbonate, gamma detection, antibody at 10 µg/ml.
For assay [2] the target is unchanged. Briefly: ELISA, free BSA coated at 300 ng/well, anti-IgG (gamma) detection. (In general: In an ELISA, binding on a coated surface is turned into a signal by an enzyme label.)
The target is the same in assay [3]. In words: ELISA, free BSA coated at 500 ng/well in sodium bicarbonate, gamma detection, antibody at 0.1 µg/ml.
Assay [4] has the same target. Briefly: ELISA, free BSA coated at 500 ng/well in sodium bicarbonate, gamma detection, antibody at 1 µg/ml.

UniProt P02769, sequence (P02769 25-607 limits assumed): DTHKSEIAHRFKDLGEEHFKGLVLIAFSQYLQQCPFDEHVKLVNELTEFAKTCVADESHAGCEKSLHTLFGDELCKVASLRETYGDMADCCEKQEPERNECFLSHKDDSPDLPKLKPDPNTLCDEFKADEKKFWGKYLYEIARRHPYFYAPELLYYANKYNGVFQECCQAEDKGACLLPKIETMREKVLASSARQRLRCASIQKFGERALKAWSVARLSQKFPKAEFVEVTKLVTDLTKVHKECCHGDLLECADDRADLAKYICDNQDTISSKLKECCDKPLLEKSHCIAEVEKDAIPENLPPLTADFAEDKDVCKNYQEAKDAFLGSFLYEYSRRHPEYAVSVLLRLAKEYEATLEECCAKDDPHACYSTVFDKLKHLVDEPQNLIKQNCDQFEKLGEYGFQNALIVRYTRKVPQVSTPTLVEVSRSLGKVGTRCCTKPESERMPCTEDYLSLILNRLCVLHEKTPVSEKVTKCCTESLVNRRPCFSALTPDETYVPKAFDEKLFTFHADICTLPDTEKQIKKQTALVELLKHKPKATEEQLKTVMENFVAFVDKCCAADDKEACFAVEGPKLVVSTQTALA

B1: 6B5 (antibody, V domains shown)
VH: QVQLQQSDAELVKPGASVKISCKVSGYTFTDHTIHWMKQRPEQGLEWIGYNYPRDGSTKYNEKFKGKATLTADKSSSTAYMQLNSLTSEDSAVYFCAKGFITTVVPSAYWGQGTLVTVSA
VL: DVQITQSPSYLAASPGETITINCRASKSISKYLAWYQEKPGKTNKLLIYSGSTLQSGIPSRFSGSGSGTDFTLTISSLEPEDFAMYYCQQHNEYPWTFGGGTKLEIK
Consider B1, for which the OD in the assay with Free BSA (Sigma A6003) [1] stood at 0.15 OD; in the assay with Free BSA (Sigma A6003) [2], 1.29 OD; in the assay with Free BSA (Sigma A6003) [3], 0.079 OD; in the assay with Free BSA (Sigma A6003) [4], 0.119 OD.

B2: 9H10 (antibody, IgM, V domains shown)
VH: QVQLKQSGPGLVQPSQSLSITCTVSGFSLTSYGVHWVRQSPGKGLEWLGVIWSGGSTDYNAAFISRLSISKDNSKSQVFFKMNSLQADDTAIYYCARNYGYDYAMDYWGQGTSVTVSS
VL: DILLTQSPAILSVSPGERVSFSCRASQSIGTSIHWYQQRTNGSPRLLIKYASESISGIPSRFSGSGSGTDFTLSINSVESEDIADYYCQQSNSWPFTFGSGTKLEIK
Regarding B2, the OD with Free BSA (Sigma A6003) [2] was found to be 0.095 OD.

B3: 6C8 (antibody, V domains shown)
VH: QVQLQQSGAELVKPGASVKISCKASGYAFSSYWMNWVKQRPGKGLEWIGQIYPGDGDTNYNGKFKGKATLTADKSSSTAYMQLSSLTSEDSAVYFCTRRCYYGLYFDVWGTGTTVTVSS
VL: DIKMTQSPSSRYASLGERVTITCKASQDINRYLSWFQQKPGKSPKTLIYRANRLVDGVPSRFSGSGSGQDYSLTISSLEYEDMGIYYCLQYDEFPYTFGGGTKLEIK
Turning to B3, the OD with Free BSA (Sigma A6003) [1] came to 0.062 OD; with Free BSA (Sigma A6003) [2], 0.098 OD; with Free BSA (Sigma A6003) [3] it was 0.056 OD; with Free BSA (Sigma A6003) [4], 0.057 OD.

B4: 7B10 (antibody, IgM, V domains shown)
VH: QVQLQQSGAELAKPGASVKLSCKASGYTFTSYWMHWVKQRPGQGLEWIGYINPSSGYTKYNQKFKDKATLTADKSSSTAYMQLSSLTYEDSAVYYCARGGYYGFAYWGQGTLVTVSA
VL: QIVLTQSPALMSASPGEKVTMTCSASSSVSYMYWYQQKPRSSPKPWIYLTSNLASGVPARFSGSGSGTSYSLTISSMEAEDAATYYCQQWSSNPLTFGAGTKLELK
In the case of B4, the OD with Free BSA (Sigma A6003) [2] is 0.077 OD.

B5: 9H11 (antibody, IgM, V domains shown)
VH: QVQLQQSGAELAKPGASVKLSCKASGYTFTSYWMHWVKQRPGQGLEWIGYINPSSGYTKYNQKFKDKATLTADKSSSTAYMQLSSLTYEDSAVYYCARGGYYGFAYWGQGTLVTVSA
VL: QIVLTQSPALMSASPGEKVTMTCSASSSVSYMYWYQQKPRSSPKPWIYLTSNLASGVPARFSGSGSGTSYSLTISSMEAEDAATYYCQQWSSNPLTFGAGTKLELK
As to B5, the OD with Free BSA (Sigma A6003) [2] amounted to 0.105 OD.
